The text below walks through data of paper PMC9282883 (Nature, 2021).

B1: S304 IgG1 (antibody, V domains shown)
VH: EVQLVESGGGLVQPGGSLRLSCAASGFTFSSYDMHWVRQTTGKGLEWVSTIGTAGDTYYPDSVKGRFTISREDAKNSLYLQMNSLRAGDTAVYYCARGDSSGYYYYFDYWGQGTLLTVSS
VL: DIQMTQSPSSLSAAVGDRVTITCRASQSIGSYLNWYQQKPGKAPKLLIYAASSLQSGVPSRFSGSGSGTDFTLTISSLQPEDFAIYYCQQSYVSPTYTFGPGTKVDIK
B2: S2H97 IgG1 (antibody, V domains shown)
VH: QVRLVQSGAEVKKSGESLKISCKGSGYSFTSYWIGWVRQMPGKGLEWMGIIYPGDSDTRYSPSFQGQVTISADKSISTVYLQWSSLKASDTAMYYCARQWSHYTYDYYYWGQGTLVTISS
VL: QSVLTQPASVSGSPGQSITISCTGISSDVGGYNSVSWYQQHPGKAPKLMIYDVTNRPSGVSNRFSGSKSGNTASLTISGLQAEDEADYYCSSYTSSSTPPYVFGTGTKVSVL
B3: S2E12 IgG1 (antibody, V domains shown)
VH: not shown
VL: DIVLTQTPGTLSLSPGERATLSCRASQSVSSSYLAWYQQKPGQAPRLLIYGASSRATGIPDRFSGSGSGTDFTLTISRLEPEDFAVYYCQQYVGLTGWTFGQGTKVEIK
B4: S2D106 IgG1 (antibody, V domains shown)
VH: EVQLVQSGAEVKKPGSSVKVSCKASGGPFSSSAISWVRQAPGQGLEWMGGIIPMVGTANYAQKFQGRVTITADESTSTAYMELSSLRSEDTAVYYCARDSRYCSGGSCYSVWFDPWGQGTLVTVSS
VL: not shown
B5: S2X35 IgG1 (antibody, V domains shown)
VH: QVQLVQSGAEVKKPGASVKVSCKASGYTFTNYGISWVRQAPGQGLEWMGWISAYKGNTNYAQKLQGRVTMTTDTSTSTAYMELRSLRSDDTAVYYCARPDYQVLGYDFWIGYYGMDVWGQGTTVIVSS
VL: QSVLTQPPSVSGAPGQRVTISCTGSSSNIGAGYDVHWYQQLPGTAPKLLIYGNTNRPSGVPDRFSGSKSGTSASLAITGLQAEDEADYYCQSYDSSLSGSEVVFGGGTKLTVL
B6: S304 Fab (Fab, V domains shown)
VH: B1 VH
VL: B1 VL
B7: S2H97 Fab (Fab, V domains shown)
VH: B2 VH
VL: B2 VL
B8: S2E12 Fab (Fab, V domains shown)
VH: not shown
VL: B3 VL
B9: S2D106 Fab (Fab, V domains shown)
VH: B4 VH
VL: not shown
B10: S2X35 Fab (Fab, V domains shown)
VH: B5 VH
VL: B5 VL

One test addresses T1, SARS-CoV-2 RBD WT (for SPR binding assays) (SARS-CoV-2, Wuhan-Hu-1 (WT), UniProt P0DTC2). Kind of test: cell-based or functional assay.
Consider B1, for which the “IC50, neutralisation of authentic SARS-CoV-2 (SARS-CoV-2-Nluc) on Vero E6 cells” value (“IC50, neutralisation” below) was 14.4 µg/mL.

As to B2, the “IC50, neutralisation” value was 0.749 µg/mL and the “IC90, neutralisation of authentic SARS-CoV-2 (SARS-CoV-2-Nluc) on Vero E6 cells” value (from here on “IC90, neutralisation”) was found to be 3.29 µg/mL.

B3: the “IC50, neutralisation” value amounted to 0.0045 µg/mL and the “IC90, neutralisation” value was 0.014 µg/mL.

As for B4, the “IC50, neutralisation” value came to 0.0068 µg/mL and the “IC90, neutralisation” value was 0.0236 µg/mL.

For B5, the “IC50, neutralisation” value was 0.179 µg/mL and the “IC90, neutralisation” value was found to be 0.593 µg/mL.

Another test deals with T1, SARS-CoV-2 RBD WT (for SPR binding …). The test can be described thus: SPR. A general note: Surface plasmon resonance follows binding to a sensor surface in real time, without labels.
The term Kd denotes the constant that tells how readily two partners part at equilibrium. Read a high Kd as weaker binding. Take B1: the Kd was determined as 0.4 nM.

With B6, the Kd was 1 nM.

The molecule B2 yielded a dissociation constant (Kd) of 0.04 nM.

Consider B7, for which the Kd was 0.04 nM.

As to B3, binding was put at a Kd of 0.7 nM.

In the case of B8, binding was characterised by a dissociation constant (Kd) of 1.7 nM.

Molecule B4 showed a Kd of 0.04 nM.

Molecule B9 came in with a Kd of 0.05 nM.

In the case of B5, binding was characterised by a dissociation constant (Kd) of 0.06 nM.

For the molecule B10, the affinity, expressed as Kd, was 0.2 nM.
